From publication PMC9234029, “Voltammetric lipase activity assay based on dilinolein and a modified carbon paste electrode” (Analytical and Bioanalytical Chemistry, 2022)

Substrate: CCCCC/C=C\C/C=C\CCCCCCCC(=O)OCC(O)COC(=O)CCCCCCC/C=C\C/C=C\CCCCC
Experiment: differential pulse voltammetry of released linoleic acid, CoPC/MWCNT carbon paste electrode
Type: biochemical, Sus scrofa
Conditions: sodium borate 0.1 M pH 9, room temperature, 25 min, Lineweaver-Burk plot, substrate in paraffin oil

B1: porcine pancreas lipase (PP-L) (Sus scrofa) (protein)
chain: SEVCFPRLGCFSDDAPWAGIVQRPLKILPWSPKDVDTRFLLYTNQNQNNYQELVADPSTITNSNFRMDRKTRFIIHGFIDKGEEDWLSNICKNLFKVESVNCICVDWKGGSRTGYTQASQNIRIVGAEVAYFVEVLKSSLGYSPSNVHVIGHSLGSHAAGEAGRRTNGTIERITGLDPAEPCFQGTPELVRLDPSDAKFVDVIHTDAAPIIPNLGFGMSQTVGHLDFFPNGGKQMPGCQKNILSQIVDIDGIWEGTRDFVACNHLRSYKYYADSILNPDGFAGFPCDSYNVFTANKCFPCPSEGCPQMGHYADRFPGKTNGVSQVFYLNTGDASNFARWRYKVSVTLSGKKVTGHILVSLFGNEGNSRQYEIYKGTLQPDNTHSDEFDSDVEVGDLQKVKFIWYNNNVINPTLPRVGASKITVERNDGKVYDFCSQETVREEVLLTLNPC
Km: 290 µM
